Earlier results in publication PMC3423339.

Target: Alk1 (Homo sapiens) (UniProt P37023)
Chain of UniProt P37023 (P37023 22-118): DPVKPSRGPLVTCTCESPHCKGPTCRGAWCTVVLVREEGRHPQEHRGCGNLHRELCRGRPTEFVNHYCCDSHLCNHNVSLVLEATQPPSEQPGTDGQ

BMP9 (from UniProt Q9UK05)
Kd: 1 pM
